In paper PMC6628001, “The Biochemical Activities of the Saccharomyces cerevisiae Pif1 Helicase Are Regulated by Its N-Terminal Domain”:

T1: Pif1ΔN (Saccharomyces cerevisiae, UniProt P07271 234-859, del1-233)
T1 sequence: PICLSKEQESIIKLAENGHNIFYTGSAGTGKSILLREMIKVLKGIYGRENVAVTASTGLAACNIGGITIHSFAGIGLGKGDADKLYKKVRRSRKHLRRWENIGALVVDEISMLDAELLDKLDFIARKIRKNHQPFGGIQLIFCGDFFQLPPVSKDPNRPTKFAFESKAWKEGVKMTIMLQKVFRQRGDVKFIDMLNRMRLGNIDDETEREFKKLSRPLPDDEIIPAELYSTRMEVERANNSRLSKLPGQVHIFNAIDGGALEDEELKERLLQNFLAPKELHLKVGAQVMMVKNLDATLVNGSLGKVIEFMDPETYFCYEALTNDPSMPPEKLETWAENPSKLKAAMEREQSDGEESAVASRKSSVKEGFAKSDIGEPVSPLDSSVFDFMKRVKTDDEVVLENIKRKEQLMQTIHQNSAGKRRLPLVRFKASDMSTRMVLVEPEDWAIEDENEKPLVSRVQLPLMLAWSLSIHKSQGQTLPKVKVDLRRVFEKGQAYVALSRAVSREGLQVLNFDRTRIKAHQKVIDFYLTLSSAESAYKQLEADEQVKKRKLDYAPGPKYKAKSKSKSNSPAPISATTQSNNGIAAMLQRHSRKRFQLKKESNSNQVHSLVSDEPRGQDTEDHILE

T2: Pif1 (full-length recombinant) (Saccharomyces cerevisiae, UniProt P07271 1-859)
T2 sequence: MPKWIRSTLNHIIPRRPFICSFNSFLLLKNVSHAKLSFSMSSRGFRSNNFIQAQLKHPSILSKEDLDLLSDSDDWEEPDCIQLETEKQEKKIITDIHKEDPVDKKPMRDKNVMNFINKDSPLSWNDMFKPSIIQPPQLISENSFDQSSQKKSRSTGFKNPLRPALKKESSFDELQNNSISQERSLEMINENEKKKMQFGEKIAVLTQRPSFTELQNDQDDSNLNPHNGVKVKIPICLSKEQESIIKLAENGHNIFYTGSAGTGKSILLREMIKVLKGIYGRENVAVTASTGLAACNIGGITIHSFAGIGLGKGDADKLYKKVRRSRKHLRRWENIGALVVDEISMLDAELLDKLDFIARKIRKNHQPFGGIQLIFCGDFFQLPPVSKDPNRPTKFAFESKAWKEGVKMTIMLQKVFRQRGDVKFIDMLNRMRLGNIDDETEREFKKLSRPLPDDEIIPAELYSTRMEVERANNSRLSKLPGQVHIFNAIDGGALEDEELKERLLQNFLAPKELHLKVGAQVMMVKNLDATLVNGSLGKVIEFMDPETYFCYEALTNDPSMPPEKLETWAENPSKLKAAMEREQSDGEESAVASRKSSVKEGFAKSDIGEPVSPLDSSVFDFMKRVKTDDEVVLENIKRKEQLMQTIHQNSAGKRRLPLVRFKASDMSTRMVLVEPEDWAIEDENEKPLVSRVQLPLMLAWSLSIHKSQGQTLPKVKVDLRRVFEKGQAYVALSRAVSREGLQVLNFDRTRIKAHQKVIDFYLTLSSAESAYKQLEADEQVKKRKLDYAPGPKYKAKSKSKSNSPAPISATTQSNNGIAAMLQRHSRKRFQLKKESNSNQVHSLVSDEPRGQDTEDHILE

B1: Tel30 (ssDNA)
DNA: CGCCATGCTGATCCGTGTGGTGTGTGTGGG
B2: RNA-DNA hybrid fork (MB1572/MB1571) (DNA:RNA)
DNA: GAACGCTATGTGAGTGACACTGGGTCACCACACCCACACCACACC
RNA: GGUGUGGUGUGGGUGUGGUGUGGGUCACAGUGAGUGUAUCGCAAG
modifications: MB1571 is all RNA; MB1572 is DNA
B3: Tel15 (ssDNA)
DNA: TGTGGTGTGTGTGGG

How the values were obtained:
Pif1ΔN = target: T1, Pif1ΔN; assay: EMSA; 7.5 mM Mg2+; 25 mM HEPES pH 8.0, 5% glycerol, 50 mM NaOAc, 150 μM NaCl (so in the source), 7.5 mM MgCl2, 0.01% Tween-20; 0.2 nM DNA; 30 °C 30 min; 4 mM ATP when present (not stated per row); details: protein: recombinant, tags: SUMO tag in expression construct (pSUMO-Pif1ΔN)
[1] = target: T2, Pif1 (full-length recombinant); assay: as above; details: protein: recombinant, tags: SUMO tag in expression construct (pSUMO-Pif1)
[2] = label: 32P on helicase loading strand (5' end, T4 PNK; MB1572 implied), fork 1:26-45 2:1-20, unpaired 5' DNA arm 25 nt and 3' RNA arm 25 nt

| Binder | Kd (Pif1ΔN; label: 32P (5' end, T4 PNK)) | Kd [1, 2] | Kd (Pif1ΔN; [2]) | Kd ([1]; label: 32P (5' end, T4 PNK)) |
| --- | --- | --- | --- | --- |
| B1 | 0.41 ± 0.031 nM | – | – | – |
| B2 | – | 0.67 ± 0.085 nM | 0.135 ± 0.013 nM | – |
| B3 | 0.39 ± 0.058 nM | – | – | 112 ± 12.7 nM |
